± gives the standard deviation of the averaged measurements.
How the values were obtained:
Saccharomyces cerevisiae [1] = test: protein stability index of tFT-peptide fusion (C-terminal peptide) (PSI (0-1 scale)); higher = more stable (slower turnover)
Description: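 MPS profiling in S. cerevisiae of the tFT-X12 degron library: putative degron peptides plus stable controls, 12 aa, fused to the C-terminus of a sfGFP-mCherry timer. Cells are FACS-sorted into 8 mCherry/sfGFP bins and deep-sequenced. PSI runs from 0 (unstable) to 1 (stable). Backgrounds are wild type, das1Δ and doa10Δ at 30 °C, and wild type, das1Δ, cdc34-1 and cdc53-1 at 37 °C; 2-3 technical replicates each.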

Saccharomyces cerevisiae [2] = test: as above; settings: genetic background: wild type; temperature: 30 C
[3] = genetic background: cdc34-1, temperature: 37 C
[4] = genetic background: cdc53-1, temperature: 37 C
[5] = genetic background: das1 deletion, temperature: 30 C
[6] = genetic background: das1 deletion, temperature: 37 C
[7] = genetic background: doa10 deletion, temperature: 30 C
[8] = genetic background: wild type, temperature: 30 C
[9] = genetic background: wild type, temperature: 37 C
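Also: PSI is a weighted mean of sequencing reads over stability bins, variants kept only with over 10 reads, mCherry proximal and sfGFP distal, peptide attached via GGGS linker.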

Sequence	protein stability index (Saccharomyces cerevisiae [1]; [3])	protein stability index (Saccharomyces cerevisiae [1]; [4])	protein stability index (Saccharomyces cerevisiae [1]; [5])	protein stability index (Saccharomyces cerevisiae [1]; [6])	protein stability index (Saccharomyces cerevisiae [1]; [7])	protein stability index (Saccharomyces cerevisiae [1]; [8])	protein stability index (Saccharomyces cerevisiae [1]; [9])	protein stability index (Saccharomyces cerevisiae [2])
CFFFPCFSFRFL	0.39 ± 0.0076	0.448 ± 0.012	0.416 ± 0.024	0.528 ± 0.015	0.377 ± 0.02	0.296 ± 0.011	0.453 ± 0.033	0.342 ± 0.041
CFFICGVFVFLM	0.21 ± 0.07	0.338 ± 0.029	0.257 ± 0.03	0.435 ± 0.014	0.229 ± 0.01	0.244 ± 0.034	0.4088 ± 0.0015	0.3651 ± 0.00098
CFFILSLMVVVI	0.0733 ± 0.0068	0.16 ± 0.027	0.12 ± 0.029	0.229 ± 0.0071	0.0944 ± 0.0056	0.0999 ± 0.03	0.183 ± 0.0091	0.194 ± 0.054
CFFLSFNVFRLF	0.465 ± 0.059	0.559 ± 0.011	0.498 ± 0.034	0.633 ± 0.022	0.107 ± 0.0097	0.114 ± 0.033	0.113 ± 0.0019	0.148 ± 0.05
CFVISVLFFFVG	0.292 ± 0.011	0.491 ± 0.035	0.288 ± 0.035	0.467 ± 0.015	0.284 ± 0.024	0.286 ± 0.013	0.436 ± 0.03	0.444 ± 0.025
CFVLVVCIPVMV	0.2 ± 0.0041	0.247 ± 0.033	0.198 ± 0.023	0.3457 ± 0.0017	0.18 ± 0.009	0.207 ± 0.024	0.3279 ± 0.0019	0.31 ± 0.035
CFVQVGGLVKIS	0.66 ± 0.045	0.725 ± 0.042	0.61 ± 0.012	0.731 ± 0.033	0.248 ± 0.02	0.293 ± 0.036	0.57 ± 0.04	0.412 ± 0.012
CFVSFLHLLYFS	0.347 ± 0.044	0.341 ± 0.025	0.35 ± 0.025	0.4666 ± 8.3e-05	0.506 ± 0.0063	0.296 ± 0.024	0.425 ± 0.0054	0.362 ± 0.015
CGFVCGLCLCRV	0.552 ± 0.052	0.586 ± 0.016	0.364 ± 0.04	0.605 ± 0.042	0.345 ± 0.023	0.381 ± 0.031	0.572 ± 0.013	0.484 ± 0.0062
CGFVFFVLVVFW	0.112 ± 0.0055	0.17 ± 0.0063	0.12 ± 0.033	0.229 ± 0.0079	0.15 ± 0.0054	0.114 ± 0.025	0.193 ± 0.026	0.15 ± 0.035
CGQIAFLGIAVK	0.479 ± 0.0077	0.504 ± 0.043	0.317 ± 0.042	0.551 ± 0.024	0.289 ± 0.015	0.323 ± 0.029	0.541 ± 0.0077	0.4722 ± 0.0006
CGWFVSVGWRLG	0.5443 ± 0.0014	0.67 ± 0.037	0.514 ± 0.016	0.66 ± 0.0096	0.228 ± 0.014	0.305 ± 0.035	0.5062 ± 0.0022	0.25 ± 0.013
CHFLLHYVFLLS	0.3792 ± 0.0019	0.456 ± 0.0076	0.306 ± 0.037	0.523 ± 0.0055	0.241 ± 0.0065	0.267 ± 0.024	0.462 ± 0.015	0.417 ± 0.017
CHPIPLARLAPT	0.671 ± 0.032	0.745 ± 0.032	0.67 ± 0.046	0.7433 ± 0.0058	0.652 ± 0.026	0.666 ± 0.014	0.697 ± 0.011	0.72 ± 0.013
CKKATILRIKSM	0.589 ± 0.049	0.715 ± 0.051	0.643 ± 0.014	0.691 ± 0.0021	0.17 ± 0.023	0.19 ± 0.031	0.298 ± 0.059	0.304 ± 0.013
CLCYFLFYFLFV	0.49 ± 0.0055	0.513 ± 0.026	0.436 ± 0.033	0.572 ± 0.0063	0.465 ± 0.023	0.442 ± 0.029	0.543 ± 0.028	0.501 ± 0.043
CLEHLVYCRLAS	0.435 ± 0.046	0.624 ± 0.06	0.555 ± 0.015	0.6774 ± 0.0062	0.0612 ± 0.0023	0.0694 ± 0.025	0.0634 ± 0.0027	0.131 ± 0.022
CLHFLTWVRICS	0.2 ± 0.041	0.4701 ± 0.0029	0.409 ± 0.019	0.526 ± 0.011	0.0895 ± 0.0063	0.0814 ± 0.025	0.0804 ± 0.03	0.285 ± 0.041
CLNPCVRWDGHV	0.739 ± 0.065	0.7589 ± 0.0016	0.651 ± 0.039	0.77 ± 0.0062	0.661 ± 0.05	0.687 ± 0.028	0.732 ± 0.011	0.708 ± 0.0077
CMAWLSVLKTLF	0.709 ± 0.082	0.744 ± 0.023	0.63 ± 0.017	0.756 ± 0.037	0.387 ± 0.037	0.421 ± 0.012	0.615 ± 0.053	0.495 ± 0.04

Sequence	protein stability index (Saccharomyces cerevisiae [1]; [3])	protein stability index (Saccharomyces cerevisiae [1]; [4])	protein stability index (Saccharomyces cerevisiae [1]; [5])	protein stability index (Saccharomyces cerevisiae [1]; [6])	protein stability index (Saccharomyces cerevisiae [1]; [7])	protein stability index (Saccharomyces cerevisiae [1]; [8])	protein stability index (Saccharomyces cerevisiae [1]; [9])	protein stability index (Saccharomyces cerevisiae [2])
CRQDWMCFVYLS	0.0642 ± 0.013	0.0406 ± 0.0042	0.145 ± 0.021	0.187 ± 0.031	0.166 ± 0.0047	0.0558 ± 0.007	0.0647 ± 0.023	0.108 ± 0.016
CVFAYSPVALRC	0.543 ± 0.025	0.534 ± 0.014	0.409 ± 0.024	0.556 ± 0.0084	0.412 ± 0.016	0.403 ± 0.018	0.532 ± 0.018	0.488 ± 0.01
CVFGFACRVLVV	0.288 ± 0.012	0.32639 ± 4.3e-05	0.281 ± 0.031	0.407 ± 0.0012	0.241 ± 0.011	0.278 ± 0.02	0.364 ± 0.01	0.338 ± 0.017
CYKYTYVKNNMI	0.689 ± 0.042	0.7646 ± 0.0044	0.642 ± 0.038	0.753 ± 0.014	0.197 ± 0.013	0.231 ± 0.044	0.555 ± 0.014	0.249 ± 0.051
CYRRCQAFLVLV	0.313 ± 0.024	0.397 ± 0.015	0.334 ± 0.031	0.449 ± 0.015	0.134 ± 0.0022	0.127 ± 0.026	0.162 ± 0.011	0.181 ± 0.0026
DFVFFLVSVRFR	0.103 ± 0.039	0.216 ± 0.059	0.177 ± 0.037	0.32 ± 0.017	0.15 ± 0.013	0.178 ± 0.03	0.284 ± 0.0058	0.284 ± 0.081
DGSFCLLYMTIA	0.504 ± 0.066	0.5745 ± 0.002	0.429 ± 0.02	0.615 ± 0.046	0.293 ± 0.0055	0.332 ± 0.016	0.4919 ± 0.0048	0.454 ± 0.01
DGYLFKGIWFFV	0.645 ± 0.011	0.7326 ± 0.0039	0.617 ± 0.033	0.738 ± 0.036	0.145 ± 0.0041	0.163 ± 0.022	0.349 ± 0.0098	0.189 ± 0.031
DKVTLLRRCKQY	0.606 ± 0.03	0.726 ± 0.009	0.634 ± 0.026	0.701 ± 0.015	0.173 ± 0.029	0.206 ± 0.03	0.311 ± 0.012	0.202 ± 0.12
DLRGLGRFRISH	0.6886 ± 0.0067	0.741 ± 0.021	0.64 ± 0.031	0.7181 ± 0.0055	0.486 ± 0.0072	0.503 ± 0.024	0.677 ± 0.017	0.572 ± 0.11
DLVGRETRMRLN	0.6744 ± 0.0063	0.70449 ± 0.00037	0.633 ± 0.039	0.7221 ± 0.0045	0.202 ± 0.01	0.263 ± 0.022	0.526 ± 0.097	0.383 ± 0.0088
DPTLLLYPLSPL	0.688 ± 0.018	0.765 ± 0.0076	0.654 ± 0.019	0.748 ± 0.014	0.667 ± 0.029	0.685 ± 0.035	0.72 ± 0.023	0.57 ± 0.2
DVVRWQRVRNYV	0.687 ± 0.024	0.7218 ± 0.0072	0.632 ± 0.022	0.737 ± 0.0088	0.2746 ± 0.0021	0.3 ± 0.028	0.573 ± 0.0059	0.454 ± 0.041
EGGGGRFWVCVG	0.676 ± 0.044	0.732 ± 0.012	0.631 ± 0.0097	0.748 ± 0.014	0.258 ± 0.0033	0.298 ± 0.034	0.596 ± 0.018	0.425 ± 0.028
EKHRRYAITKFI	0.666 ± 0.019	0.694 ± 0.052	0.659 ± 0.027	0.732 ± 0.025	0.155 ± 0.0053	0.196 ± 0.058	0.407 ± 0.1	0.28 ± 0.043
EKKNQTAYNKTV	0.691 ± 0.035	0.71 ± 0.023	0.644 ± 0.013	0.707 ± 0.022	0.149 ± 0.021	0.176 ± 0.028	0.365 ± 0.0059	0.39 ± 0.018
EKTKTKRERKIN	0.576 ± 0.0019	0.696 ± 0.008	0.626 ± 0.045	0.715 ± 0.036	0.165 ± 0.0048	0.191 ± 0.015	0.384 ± 0.0062	0.312 ± 0.028
ELNERRKRLVTN	0.623 ± 0.052	0.737 ± 0.01	0.6615 ± 0.0035	0.718 ± 0.0088	0.13 ± 0.021	0.142 ± 0.012	0.268 ± 0.033	0.304 ± 0.011
ERNERKYKIKIT	0.699 ± 0.018	0.724 ± 0.035	0.609 ± 0.042	0.715 ± 0.026	0.179 ± 0.013	0.239 ± 0.037	0.461 ± 0.034	0.374 ± 0.041
